B1: anti-CD33 antibody variant S11 (antibody, V domains shown)
VH: QVQLVQSGAEVKKPGSSVKVSCKASGGIFSNHRISWVRQAPGQGLEWMGGIIPIFGTANYAQKFQGRVTITADESTSTAFMELSSLRSEDTAVYYCARAWADVFDIWGQGTMVTVSS
VL: EIVLTQSPLSLPVTPGEPASISCRSSQSLLHSNGYNYLDWYLQKPGQSPQLLIYLGVNSVSGVPDRFSGSGSGTDFTLKISRVEAEDVGVYYCMQALQTPWTFGQGTKVEIK
B2: anti-CD33 antibody W96F (antibody, V domains shown)
VH: QVQLVQSGAEVKKPGSSVKVSCKASGGIFSNHAISWVRQAPGQGLEWMGGIIPIFGTANYAQKFQGRVTITADESTSTAFMELSSLRSEDTAVYYCAREFADVFDIWGQGTMVTVSS
VL: EIVLTQSPLSLPVTPGEPASISCRSSQSLLHSNGYNYLDWYLQKPGQSPQLLIYLGVNSVSGVPDRFSGSGSGTDFTLKISRVEAEDVGVYYCMQALQTPWTFGQGTKVEIK

Target: human CD33 protein (R&D Systems) (Homo sapiens, UniProt P20138)
Sequence (P20138 18-259): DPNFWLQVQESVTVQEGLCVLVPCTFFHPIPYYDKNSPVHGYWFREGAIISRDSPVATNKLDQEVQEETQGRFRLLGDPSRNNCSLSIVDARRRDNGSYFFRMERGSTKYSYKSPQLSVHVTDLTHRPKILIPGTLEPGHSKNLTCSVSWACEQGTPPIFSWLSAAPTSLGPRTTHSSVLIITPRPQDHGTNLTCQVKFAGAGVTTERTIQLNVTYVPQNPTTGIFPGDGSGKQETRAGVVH
Experiment: SPR

Row | Binder | fold reduction in binding affinity (KD) against the lead candidate [fold] | binding result | fold loss of binding affinity against the parent antibody [fold]
1 | B1 | 1.4 |  | 
2 | B2 |  | no binding | > 1000

Reference: doi:10.1101/2025.06.29.662139 (bioRxiv, 2025)
